Reference: article PMC7857403

Molecular target: SARS-CoV-2 spike ectodomain trimer (SARS-CoV-2) (UniProt P0DTC2)
Assay: cryo-EM structure

Substance	stoichiometry N (minibinders per spike trimer)
LCB3 (designed binder)	3
LCB1 (designed binder)	3
